Laboratory results reported in paper PMC7296103, “Live Cell Imaging Demonstrates Multiple Routes Toward a STAT1 Gain-of-Function Phenotype” (Frontiers in Immunology, 2020).

Tests used:
[1] = biological target: T1, STAT1-GFP wild type, P42224; experiment: raster image correlation spectroscopy (RICS), molecular brightness; living U3A cells after IFNγ (1 U/μl, 1 h), 37°C; nucleus; brightness as fold of cytoplasmic STAT1 WT; dimers to tetramers; conditions: remark: other sources report otherwise
T1 chain: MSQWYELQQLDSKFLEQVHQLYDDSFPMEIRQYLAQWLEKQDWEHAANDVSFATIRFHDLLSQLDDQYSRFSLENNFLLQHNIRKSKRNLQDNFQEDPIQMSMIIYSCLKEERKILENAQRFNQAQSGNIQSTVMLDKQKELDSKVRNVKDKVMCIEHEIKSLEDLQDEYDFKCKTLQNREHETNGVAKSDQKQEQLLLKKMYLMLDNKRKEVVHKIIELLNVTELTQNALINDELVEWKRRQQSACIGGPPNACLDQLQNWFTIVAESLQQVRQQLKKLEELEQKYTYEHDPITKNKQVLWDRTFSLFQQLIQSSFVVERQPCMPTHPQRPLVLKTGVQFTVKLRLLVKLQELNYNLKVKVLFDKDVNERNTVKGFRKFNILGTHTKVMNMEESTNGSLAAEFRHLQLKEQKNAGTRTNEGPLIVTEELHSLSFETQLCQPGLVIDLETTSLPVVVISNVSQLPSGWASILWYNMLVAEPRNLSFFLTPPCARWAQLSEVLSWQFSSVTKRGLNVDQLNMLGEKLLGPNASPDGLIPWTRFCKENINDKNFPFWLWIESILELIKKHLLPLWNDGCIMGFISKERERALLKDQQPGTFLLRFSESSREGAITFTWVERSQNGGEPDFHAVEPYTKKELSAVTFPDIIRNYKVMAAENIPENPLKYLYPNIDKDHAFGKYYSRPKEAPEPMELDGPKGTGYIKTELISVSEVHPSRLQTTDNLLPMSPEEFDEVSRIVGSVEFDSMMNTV

[2] = biological target: T1, STAT1-GFP wild type, P42224; experiment: raster image correlation spectroscopy (RICS), molecular brightness; living U3A cells after IFNγ (1 U/μl, 1 h), 37°C; cytoplasm; brightness as fold of cytoplasmic STAT1 WT; conditions: remark: other sources report otherwise
[3] = biological target: T1, STAT1-GFP wild type, P42224; experiment: raster image correlation spectroscopy (RICS), molecular brightness; living U3A cells, unstimulated, 37°C; cytoplasm and nucleus; brightness of STAT1-GFP compared with monomeric GFP; conditions: remark: other sources report otherwise
[4] = biological target: the molecule itself; experiment: raster image correlation spectroscopy (RICS), molecular brightness; living U3A cells after IFNγ (1 U/μl, 1 h), 37°C; cytoplasm; brightness as fold of cytoplasmic STAT1 WT
[5] = biological target: the molecule itself; experiment: raster image correlation spectroscopy (RICS), molecular brightness; living U3A cells after IFNγ (1 U/μl, 1 h), 37°C; nucleus; brightness as fold of cytoplasmic STAT1 WT; dimers to tetramers

B1: STAT1-GFP wild type, P42224 1-750 (natural protein)
chain: MSQWYELQQLDSKFLEQVHQLYDDSFPMEIRQYLAQWLEKQDWEHAANDVSFATIRFHDLLSQLDDQYSRFSLENNFLLQHNIRKSKRNLQDNFQEDPIQMSMIIYSCLKEERKILENAQRFNQAQSGNIQSTVMLDKQKELDSKVRNVKDKVMCIEHEIKSLEDLQDEYDFKCKTLQNREHETNGVAKSDQKQEQLLLKKMYLMLDNKRKEVVHKIIELLNVTELTQNALINDELVEWKRRQQSACIGGPPNACLDQLQNWFTIVAESLQQVRQQLKKLEELEQKYTYEHDPITKNKQVLWDRTFSLFQQLIQSSFVVERQPCMPTHPQRPLVLKTGVQFTVKLRLLVKLQELNYNLKVKVLFDKDVNERNTVKGFRKFNILGTHTKVMNMEESTNGSLAAEFRHLQLKEQKNAGTRTNEGPLIVTEELHSLSFETQLCQPGLVIDLETTSLPVVVISNVSQLPSGWASILWYNMLVAEPRNLSFFLTPPCARWAQLSEVLSWQFSSVTKRGLNVDQLNMLGEKLLGPNASPDGLIPWTRFCKENINDKNFPFWLWIESILELIKKHLLPLWNDGCIMGFISKERERALLKDQQPGTFLLRFSESSREGAITFTWVERSQNGGEPDFHAVEPYTKKELSAVTFPDIIRNYKVMAAENIPENPLKYLYPNIDKDHAFGKYYSRPKEAPEPMELDGPKGTGYIKTELISVSEVHPSRLQTTDNLLPMSPEEFDEVSRIVGSVEFDSMMNTV
In the case of B1, the relative brightness (fold of cytoplasmic STAT1 WT) [1] is reported as 1.32 A.U, the stoichiometry N [1] is reported as 4 and the relative brightness (fold of cytoplasmic STAT1 WT) [2] is reported as 1 A.U. The stoichiometry N [3] was 2.

B2: STAT1-GFP R321S (natural protein, UniProt P42224 1-750, looked up)
chain: MSQWYELQQLDSKFLEQVHQLYDDSFPMEIRQYLAQWLEKQDWEHAANDVSFATIRFHDLLSQLDDQYSRFSLENNFLLQHNIRKSKRNLQDNFQEDPIQMSMIIYSCLKEERKILENAQRFNQAQSGNIQSTVMLDKQKELDSKVRNVKDKVMCIEHEIKSLEDLQDEYDFKCKTLQNREHETNGVAKSDQKQEQLLLKKMYLMLDNKRKEVVHKIIELLNVTELTQNALINDELVEWKRRQQSACIGGPPNACLDQLQNWFTIVAESLQQVRQQLKKLEELEQKYTYEHDPITKNKQVLWDRTFSLFQQLIQSSFVVESQPCMPTHPQRPLVLKTGVQFTVKLRLLVKLQELNYNLKVKVLFDKDVNERNTVKGFRKFNILGTHTKVMNMEESTNGSLAAEFRHLQLKEQKNAGTRTNEGPLIVTEELHSLSFETQLCQPGLVIDLETTSLPVVVISNVSQLPSGWASILWYNMLVAEPRNLSFFLTPPCARWAQLSEVLSWQFSSVTKRGLNVDQLNMLGEKLLGPNASPDGLIPWTRFCKENINDKNFPFWLWIESILELIKKHLLPLWNDGCIMGFISKERERALLKDQQPGTFLLRFSESSREGAITFTWVERSQNGGEPDFHAVEPYTKKELSAVTFPDIIRNYKVMAAENIPENPLKYLYPNIDKDHAFGKYYSRPKEAPEPMELDGPKGTGYIKTELISVSEVHPSRLQTTDNLLPMSPEEFDEVSRIVGSVEFDSMMNTV
notes: Mutation reported in patients; also called STAT1R321S-eGFP; source: measured in living cells; not shown: eGFP, C-terminal, kept
With B2 the “relative brightness (fold of cytoplasmic STAT1 WT)” value [4] was 0.69 A.U, the “increase of nuclear brightness compared to cytoplasmic STAT1 WT” value (shortened to “increase of nuclear brightness”) [5] was 11% and the “stoichiometry N” value [5] was 4.

B3: STAT1-GFP N574I (natural protein, UniProt P42224 1-750, looked up)
chain: MSQWYELQQLDSKFLEQVHQLYDDSFPMEIRQYLAQWLEKQDWEHAANDVSFATIRFHDLLSQLDDQYSRFSLENNFLLQHNIRKSKRNLQDNFQEDPIQMSMIIYSCLKEERKILENAQRFNQAQSGNIQSTVMLDKQKELDSKVRNVKDKVMCIEHEIKSLEDLQDEYDFKCKTLQNREHETNGVAKSDQKQEQLLLKKMYLMLDNKRKEVVHKIIELLNVTELTQNALINDELVEWKRRQQSACIGGPPNACLDQLQNWFTIVAESLQQVRQQLKKLEELEQKYTYEHDPITKNKQVLWDRTFSLFQQLIQSSFVVERQPCMPTHPQRPLVLKTGVQFTVKLRLLVKLQELNYNLKVKVLFDKDVNERNTVKGFRKFNILGTHTKVMNMEESTNGSLAAEFRHLQLKEQKNAGTRTNEGPLIVTEELHSLSFETQLCQPGLVIDLETTSLPVVVISNVSQLPSGWASILWYNMLVAEPRNLSFFLTPPCARWAQLSEVLSWQFSSVTKRGLNVDQLNMLGEKLLGPNASPDGLIPWTRFCKENINDKNFPFWLWIESILELIKKHLLPLWIDGCIMGFISKERERALLKDQQPGTFLLRFSESSREGAITFTWVERSQNGGEPDFHAVEPYTKKELSAVTFPDIIRNYKVMAAENIPENPLKYLYPNIDKDHAFGKYYSRPKEAPEPMELDGPKGTGYIKTELISVSEVHPSRLQTTDNLLPMSPEEFDEVSRIVGSVEFDSMMNTV
notes: STAT1 with the patient gain-of-function mutation N574I (linker domain); Mutation reported in patients; also called STAT1N574I-eGFP; N571I (as printed in some places); source: measured in living cells; not shown: eGFP, C-terminal, kept
B3 was tested, and the “relative brightness (fold of cytoplasmic STAT1 WT)” value [4] was 0.74 A.U, the “increase of nuclear brightness” value [5] was 7% and the “stoichiometry N” value [5] was 4.

B4: STAT1-GFP R274W (natural protein, UniProt P42224 1-750, looked up)
chain: MSQWYELQQLDSKFLEQVHQLYDDSFPMEIRQYLAQWLEKQDWEHAANDVSFATIRFHDLLSQLDDQYSRFSLENNFLLQHNIRKSKRNLQDNFQEDPIQMSMIIYSCLKEERKILENAQRFNQAQSGNIQSTVMLDKQKELDSKVRNVKDKVMCIEHEIKSLEDLQDEYDFKCKTLQNREHETNGVAKSDQKQEQLLLKKMYLMLDNKRKEVVHKIIELLNVTELTQNALINDELVEWKRRQQSACIGGPPNACLDQLQNWFTIVAESLQQVWQQLKKLEELEQKYTYEHDPITKNKQVLWDRTFSLFQQLIQSSFVVERQPCMPTHPQRPLVLKTGVQFTVKLRLLVKLQELNYNLKVKVLFDKDVNERNTVKGFRKFNILGTHTKVMNMEESTNGSLAAEFRHLQLKEQKNAGTRTNEGPLIVTEELHSLSFETQLCQPGLVIDLETTSLPVVVISNVSQLPSGWASILWYNMLVAEPRNLSFFLTPPCARWAQLSEVLSWQFSSVTKRGLNVDQLNMLGEKLLGPNASPDGLIPWTRFCKENINDKNFPFWLWIESILELIKKHLLPLWNDGCIMGFISKERERALLKDQQPGTFLLRFSESSREGAITFTWVERSQNGGEPDFHAVEPYTKKELSAVTFPDIIRNYKVMAAENIPENPLKYLYPNIDKDHAFGKYYSRPKEAPEPMELDGPKGTGYIKTELISVSEVHPSRLQTTDNLLPMSPEEFDEVSRIVGSVEFDSMMNTV
notes: STAT1 with the patient gain-of-function mutation R274W (coiled-coil domain); Mutation reported in patients; also called STAT1R274W-eGFP; source: measured in living cells; not shown: eGFP, C-terminal, kept
In the case of B4, the “increase of nuclear brightness” value [5] is reported as 17% and the “stoichiometry N” value [5] is reported as 4.

B5: STAT1-GFP Y701A (natural protein, UniProt P42224 1-750, looked up)
chain: MSQWYELQQLDSKFLEQVHQLYDDSFPMEIRQYLAQWLEKQDWEHAANDVSFATIRFHDLLSQLDDQYSRFSLENNFLLQHNIRKSKRNLQDNFQEDPIQMSMIIYSCLKEERKILENAQRFNQAQSGNIQSTVMLDKQKELDSKVRNVKDKVMCIEHEIKSLEDLQDEYDFKCKTLQNREHETNGVAKSDQKQEQLLLKKMYLMLDNKRKEVVHKIIELLNVTELTQNALINDELVEWKRRQQSACIGGPPNACLDQLQNWFTIVAESLQQVRQQLKKLEELEQKYTYEHDPITKNKQVLWDRTFSLFQQLIQSSFVVERQPCMPTHPQRPLVLKTGVQFTVKLRLLVKLQELNYNLKVKVLFDKDVNERNTVKGFRKFNILGTHTKVMNMEESTNGSLAAEFRHLQLKEQKNAGTRTNEGPLIVTEELHSLSFETQLCQPGLVIDLETTSLPVVVISNVSQLPSGWASILWYNMLVAEPRNLSFFLTPPCARWAQLSEVLSWQFSSVTKRGLNVDQLNMLGEKLLGPNASPDGLIPWTRFCKENINDKNFPFWLWIESILELIKKHLLPLWNDGCIMGFISKERERALLKDQQPGTFLLRFSESSREGAITFTWVERSQNGGEPDFHAVEPYTKKELSAVTFPDIIRNYKVMAAENIPENPLKYLYPNIDKDHAFGKYYSRPKEAPEPMELDGPKGTGAIKTELISVSEVHPSRLQTTDNLLPMSPEEFDEVSRIVGSVEFDSMMNTV
notes: Non-clinical control; also called STAT1Y701A-eGFP; source: measured in living cells; not shown: eGFP, C-terminal, kept
For B5, the “stoichiometry N” value [5] was 2.

B6: STAT1-GFP E411A (natural protein, UniProt P42224 1-750, looked up)
chain: MSQWYELQQLDSKFLEQVHQLYDDSFPMEIRQYLAQWLEKQDWEHAANDVSFATIRFHDLLSQLDDQYSRFSLENNFLLQHNIRKSKRNLQDNFQEDPIQMSMIIYSCLKEERKILENAQRFNQAQSGNIQSTVMLDKQKELDSKVRNVKDKVMCIEHEIKSLEDLQDEYDFKCKTLQNREHETNGVAKSDQKQEQLLLKKMYLMLDNKRKEVVHKIIELLNVTELTQNALINDELVEWKRRQQSACIGGPPNACLDQLQNWFTIVAESLQQVRQQLKKLEELEQKYTYEHDPITKNKQVLWDRTFSLFQQLIQSSFVVERQPCMPTHPQRPLVLKTGVQFTVKLRLLVKLQELNYNLKVKVLFDKDVNERNTVKGFRKFNILGTHTKVMNMEESTNGSLAAEFRHLQLKAQKNAGTRTNEGPLIVTEELHSLSFETQLCQPGLVIDLETTSLPVVVISNVSQLPSGWASILWYNMLVAEPRNLSFFLTPPCARWAQLSEVLSWQFSSVTKRGLNVDQLNMLGEKLLGPNASPDGLIPWTRFCKENINDKNFPFWLWIESILELIKKHLLPLWNDGCIMGFISKERERALLKDQQPGTFLLRFSESSREGAITFTWVERSQNGGEPDFHAVEPYTKKELSAVTFPDIIRNYKVMAAENIPENPLKYLYPNIDKDHAFGKYYSRPKEAPEPMELDGPKGTGYIKTELISVSEVHPSRLQTTDNLLPMSPEEFDEVSRIVGSVEFDSMMNTV
notes: Artificial mutation, not reported in patients; also called STAT1E411A-eGFP; source: measured in living cells; not shown: eGFP, C-terminal, kept
With B6 the “stoichiometry N” value [5] was 2.
